Assay results as given in the Immune Epitope Database (IEDB).
Blank lines part the entries; values can stand above or below the sequence they belong to.

What was measured:
HLA-C*05:01 = test: IEDB peptide-MHC binding, purified MHC/direct/fluorescence; filed as Kd, often an IC50 or EC50 that approximates it; ≥ and ≤ were set here for values at or beyond the usual limits of such assays; conditions: source organism: Campylobacter jejuni subsp. jejuni NCTC 11168 = ATCC 700819
HLA-A*69:01 [1] = test: as above; conditions: source organism: Bacillus anthracis
HLA-C*03:03 = test: as above; conditions: source organism: Campylobacter jejuni subsp. jejuni NCTC 11168 = ATCC 700819
HLA-A*11:01 = test: as above
HLA-A*31:01 = test: IEDB peptide-MHC binding, purified MHC/competitive/fluorescence; filed as Kd, often an IC50 or EC50 that approximates it; ≥ and ≤ were set here for values at or beyond the usual limits of such assays
HLA-B*27:05 = test: as above
HLA-A*24:03 = test: as above; conditions: source organism: Vibrio cholerae 2740-80
HLA-A*26:01 = test: as above
HLA-B*46:01 = test: as above; conditions: source organism: Vibrio cholerae 2740-80
HLA-A*03:01 [2] = test: as above
HLA-A*68:02 = test: as above; conditions: source organism: Vibrio cholerae 2740-80
HLA-A*69:01 [3] = test: as above; conditions: source organism: Vibrio cholerae 2740-80
HLA-B*57:01 = test: as above; conditions: source organism: Vibrio cholerae 2740-80
HLA-B*39:01 = test: as above; conditions: source organism: Vibrio cholerae 2740-80
HLA-B*15:01 = test: as above
HLA-A*02:12 = test: as above; conditions: source organism: Vibrio cholerae 2740-80
HLA-B*51:01 = test: as above; conditions: source organism: Vibrio cholerae 2740-80
HLA-A*02:11 = test: as above; conditions: source organism: Vibrio cholerae 2740-80
HLA-B*15:17 = test: as above; conditions: source organism: Vibrio cholerae 2740-80
HLA-A*29:02 = test: as above; conditions: source organism: Vibrio cholerae 2740-80
HLA-B*18:01 = test: as above; conditions: source organism: Vibrio cholerae 2740-80
HLA-B*27:03 = test: as above; conditions: source organism: Vibrio cholerae 2740-80
HLA-A*02:01 = test: as above; conditions: source organism: Vibrio cholerae 2740-80
HLA-B*35:01 = test: as above
HLA-A*01:01 = test: as above
HLA-A*03:01 [4] = test: IEDB peptide-MHC binding, purified MHC/direct/fluorescence; filed as Kd, often an IC50 or EC50 that approximates it; ≥ and ≤ were set here for values at or beyond the usual limits of such assays; conditions: source organism: Escherichia coli O157:H7
[5] = source organism: Vibrio cholerae 2740-80
[6] = source organism: Salmonella enterica subsp. enterica serovar Typhi
[7] = source organism: Yersinia pestis Nepal516
[8] = source organism: Powassan virus

Sequence: LLDEPTNHL
- Kd (HLA-C*05:01): 8 nM
- Kd (HLA-A*69:01 [1]): 105 nM
- Kd (HLA-C*03:03): 2910 nM

Sequence: VMYNLWKMK
- Kd (HLA-A*11:01; source organism: Yellow fever virus 17D): 6.3 nM
- Kd (HLA-A*31:01; source organism: Yellow fever virus): 5.67 nM

Sequence: KRIGASLAH
- Kd (HLA-B*27:05; source organism: Mycobacterium tuberculosis H37Rv): 171 nM

Sequence: TRALVRTGM
- Kd (HLA-B*27:05; source organism: Influenza A virus (A/swine/Italy/1509-6/97(H1N1))): 8.3 nM

Sequence: VQPWLMVDV
- Kd (HLA-A*24:03): ≥ 20 µM
- Kd (HLA-A*26:01; [5]): ≥ 20000 nM
- Kd (HLA-B*46:01): ≥ 20 µM
- Kd (HLA-A*03:01 [2]; [5]): ≥ 20000 nM
- Kd (HLA-A*68:02): ≥ 20 µM
- Kd (HLA-A*69:01 [3]): ≥ 20 µM
- Kd (HLA-B*57:01): ≥ 20 µM
- Kd (HLA-B*39:01): ≥ 20 µM
- Kd (HLA-B*15:01; [5]): ≥ 20000 nM
- Kd (HLA-A*02:12): 1170 nM
- Kd (HLA-B*51:01): ≥ 20 µM
- Kd (HLA-A*02:11): 119 nM
- Kd (HLA-B*15:17): ≥ 20 µM
- Kd (HLA-A*29:02): ≥ 20 µM
- Kd (HLA-B*18:01): ≥ 20 µM
- Kd (HLA-B*27:03): ≥ 20 µM
- Kd (HLA-A*02:01): ≥ 20 µM

Sequence: ISANANFSY
- Kd (HLA-A*03:01 [2]; [6]): ≥ 20000 nM
- Kd (HLA-B*15:01; [6]): 210 nM
- Kd (HLA-B*35:01; [6]): 24.7 nM
- Kd (HLA-A*01:01; [6]): 28.8 nM

- Kd (HLA-B*27:05; source organism: Escherichia coli 536): 86.7 nM
Sequence: FRAQTKGKV

- Kd (HLA-A*03:01 [4]): 118 nM
- Kd (HLA-A*11:01; source organism: Escherichia coli O157:H7): 4.7 nM
- Kd (HLA-A*31:01; source organism: Escherichia coli O157:H7 str. Sakai): 139 nM
Sequence: MIYMGLWLK

Sequence: GKLKYRASY
- Kd (HLA-B*27:05; source organism: Campylobacter jejuni subsp. jejuni NCTC 11168 = ATCC 700819): 4410 nM

Sequence: FVMSCKLLY
- Kd (HLA-A*26:01; [7]): 327 nM
- Kd (HLA-A*03:01 [2]; [7]): 1850 nM
- Kd (HLA-B*35:01; [7]): 3.5 nM
- Kd (HLA-A*01:01; [7]): 700 nM

Sequence: KLKLKGTTY
- Kd (HLA-A*11:01; [8]): ≥ 20000 nM
- Kd (HLA-A*03:01 [2]; [8]): 68.4 nM
- Kd (HLA-A*31:01; [8]): 2150 nM
